How the values were obtained:
spindly = spindly (UniProt Q96EA4); assay: SBP affinity purification, immunoblot; settings: reference: SST-MTAP, sites S398,S405,T408
Pin1 (GST-Pin1) = Pin1 (GST-Pin1) (UniProt Q13526); assay: GST-Pin1 pull-down from U2OS lysate; settings: reference: SST-MTAP (wild type); sites S398,S405,T408
[1] = biological target: GST-tagged Pin1 (prolyl isomerase interacting NIMA 1) (UniProt Q13526 1-163); assay: pull-down

hLIC1 (dynein light intermediate chain 1) (from UniProt Q9Y6G9) AAA-MTAP, prometaphase lysate
binding against the reference (spindly; prometaphase lysate): weaker

hLIC1 (dynein light intermediate chain 1) (from UniProt Q9Y6G9) AAA-MTAP
binding against the reference (Pin1 (GST-Pin1)): weaker

hLIC1 (dynein light intermediate chain 1) (from UniProt Q9Y6G9) AAA-MTAP, metaphase lysate
binding against the reference (spindly; metaphase lysate): weaker

B1: purified rLIC1-CTD (aa 389-523), phosphorylated in vitro by cdk1-cyclin B (domain or fragment, rat, UniProt Q9QXU8 389-523, looked up)
chain: TAAGRPVDASPRVPGGSPRTPNRSVSSNVASVSPIPAGSKKIDPNMKAGATSEGVLANFFNSLLSKKTGSPGGPGVGGSPGGGAAGASTSLPPSAKKSGQKPVLSDVHAELDRITRKPASVSPTTPPSPTEGEAS
modifications: phosphorylated in vitro by cdk1-cyclin B (three cdk1 sites S398, S405, T408)
binding result [1]: binds
